Experimental data taken from US20060204957A1, “Mta1s, a steriod hormone receptor corepressor” (priority 2002, published 2006).

Target: Estrogen Receptor α (ER) (UniProt P03372)
Experiment: cell-based or functional assay

Estrogen Receptor α (ER), sequence (P03372 whole entry): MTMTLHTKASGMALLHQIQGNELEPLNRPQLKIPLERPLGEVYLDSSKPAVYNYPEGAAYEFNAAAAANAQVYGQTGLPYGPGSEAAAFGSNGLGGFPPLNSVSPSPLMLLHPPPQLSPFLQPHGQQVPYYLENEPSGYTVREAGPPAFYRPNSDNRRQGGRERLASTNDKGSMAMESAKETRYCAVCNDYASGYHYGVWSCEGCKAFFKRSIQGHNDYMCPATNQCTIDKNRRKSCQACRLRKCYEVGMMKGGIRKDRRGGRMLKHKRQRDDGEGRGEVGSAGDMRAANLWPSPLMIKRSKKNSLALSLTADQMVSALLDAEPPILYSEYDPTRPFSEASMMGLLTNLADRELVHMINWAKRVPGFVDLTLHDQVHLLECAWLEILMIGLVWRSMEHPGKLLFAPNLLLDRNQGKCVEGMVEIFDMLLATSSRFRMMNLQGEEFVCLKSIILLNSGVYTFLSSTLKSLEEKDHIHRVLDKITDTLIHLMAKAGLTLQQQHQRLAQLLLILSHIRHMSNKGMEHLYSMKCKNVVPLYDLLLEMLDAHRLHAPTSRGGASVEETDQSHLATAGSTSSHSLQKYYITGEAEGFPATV

MTA1s-del (from UniProt Q13330 1-397)
presence of ERα in the nucleus of estradiol stimulated MCF-7 cells: > 90%
